Results on 22 molecules are retold here after US7026443.

The first assay concerns the target HLA-A*1101 (human). The assay is described as follows: competition with 125I-labelled standard peptide for purified HLA-A*1101, gel filtration. A general note: In gel filtration, larger molecules generally elute earlier.
For the molecule KLRHLNEKR (modifications not checked) [HPV18 E6 117 …], the binding affinity ratio (IC50 of standard peptide / IC50 of test peptide) came out at 0.0005. Still for that read-out and setting: to DSIPHAACH (modifications not checked) [HPV18 E6 58 …] belongs 0.0002; to ELRHYSDSVY (modifications not checked) [HPV18 E6 77 …], 0.0002. LSLHEDEDK (modifications not checked) [HPV16 E1 620 …]: the binding affinity ratio (IC50 of standard peptide / IC50 of test peptide) (ratio to standard peptide) was 0.0002. Regarding LTNILNVLK (modifications not checked) [HPV16 E1 191 …], the binding affinity ratio (IC50 of standard peptide / IC50 of test peptide) (ratio to standard peptide) amounted to 0.42.

Regarding LVSMDVKHR (modifications not checked) [HPV16 E1 544 …], the binding affinity ratio (IC50 of standard peptide / IC50 of test peptide) (ratio to standard peptide) is 0.0089.

A further assay deals with HLA-A*0201 (human). Nature of the assay: competition with 125I-labelled standard peptide for purified HLA-A*0201, gel filtration.
As to GTGCNGWFYV (modifications not checked) [HPV18 E1 peptide … (position 11, 10 amino acids)], the binding affinity ratio (IC50 of the standard peptide / IC50 of the test peptide) amounted to 0.0006. Regarding KLTNTGLYNL (modifications not checked), the relative binding ratio (IC50 of standard peptide / IC50 of test peptide) worked out at 0.0048. For the molecule FIHFIQGAVI (modifications not checked) [HPV18 E1 peptide … (position 497, 10 amino acids)], the binding affinity ratio (IC50 of the standard peptide / IC50 of the test peptide) amounted to 0.0057. For the molecule SLQDIEITCV (modifications not checked) [HPV18 E6 peptide … (position 24)], the relative binding ratio (IC50 of standard peptide / IC50 of test peptide) came out at 0.025. ELRHYSDSV (modifications not checked) [HPV18 E6 peptide … (position 77)]: the relative binding ratio (IC50 of standard peptide / IC50 of test peptide) turned out to be 0.0003. For the molecule FIQGAVISFV (modifications not checked) [HPV18 E1 peptide … (position 500, 10 amino acids)], the binding affinity ratio (IC50 of the standard peptide / IC50 of the test peptide) turned out to be 0.046. As to DTLEKLTNT (modifications not checked) [HPV18 E6 88 …], the binding affinity ratio (IC50 of the standard peptide / IC50 of the test peptide) was 0.0001. With PLNPAEKL (modifications not checked) [HPV18 E6 peptide PLNPAEKL (position 111)], the relative binding ratio (IC50 of standard peptide / IC50 of test peptide) is 0.0001.

For the molecule CMCCKCEA (modifications not checked) [HPV18 E7 peptide CMCCKCEA (position 63)], the relative binding ratio (IC50 of standard peptide / IC50 of test peptide) was 0.0005.

On to RLQRRRETQV (modifications not checked) [HPV18 E6 peptide … (position 149)], for which the relative binding ratio (IC50 of standard peptide / IC50 of test peptide) stood at 0.0001. Same read-out and setting: to KLTNTGLYNLL (modifications not checked) belongs 0.0043; to TVLELTEV (modifications not checked) [HPV18 E6 peptide TVLELTEV (position 37)], 0.001. Take NTSLQDIEIT (modifications not checked) [HPV18 E6 peptide … (position 22)]: the relative binding ratio (IC50 of standard peptide / IC50 of test peptide) turned out to be 0.0001. Regarding ELNTSLQDI (modifications not checked) [HPV18 E6 20 …], the binding affinity ratio (IC50 of the standard peptide / IC50 of the test peptide) was 0.0001. Same read-out and setting: to DLFVVYRDSI (modifications not checked) [HPV18 E6 51 …] belongs 0.0001. Turning to SVYGDTLEKL (modifications not checked) [HPV18 E6 peptide … (position 84)], the relative binding ratio (IC50 of standard peptide / IC50 of test peptide) amounted to 0.0028.

Another assay addresses HLA-A*0301 (human). The assay is described as follows: competition with 125I-labelled standard peptide for purified HLA-A*0301, gel filtration.
As for LSLHEDEDK (modifications not checked) [HPV16 E1 620 …], the binding affinity ratio (IC50 of standard peptide / IC50 of test peptide) stood at 0.0005. Same read-out and setting: to LTNILNVLK (modifications not checked) [HPV16 E1 191 …] belongs 0.0086; to LVSMDVKHR (modifications not checked) [HPV16 E1 544 …], 0.0005.
